From patent US20210318322A1 (Janssen / Centocor, published 2021) come the findings set out here.

Changes are numbered by the printed parent chain. Where two headings read alike, the source gives them in different places.

The term Kd denotes the free concentration of one partner at which half of the binding sites on the other are occupied at equilibrium, for simple one-to-one binding. Read a high Kd as lower affinity. What is called koff is a measure of how fast the partners let go of each other. A high value points to fast dissociation. The kon is a measure of how fast the partners come together. Lower therefore signals slower complex formation.

Test [1] concerns the target T1, human VISTA extracellular domain (human, UniProt Q9H7M9 33-194).
T1 construct: also called human VISTA ECD; SB0361 (human)
Description: SPR ProteOn.

For test [2], the target named is T2, cynomolgus VISTA extracellular domain (cynomolgus, UniProt A0A7N9IB00 33-194).
T2 construct: extracellular domain; also called cyno VISTA ECD; SB0361 (cyno (cynomolgus))
T2 sequence: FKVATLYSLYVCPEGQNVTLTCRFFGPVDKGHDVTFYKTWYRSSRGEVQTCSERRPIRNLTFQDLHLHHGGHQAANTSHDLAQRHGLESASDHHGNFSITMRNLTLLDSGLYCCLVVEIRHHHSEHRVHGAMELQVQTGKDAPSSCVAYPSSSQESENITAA
Description: SPR ProteOn.

The target of test [3] is T3, human VISTA expressed on cells (human, UniProt Q9H7M9 33-295).
T3 sequence: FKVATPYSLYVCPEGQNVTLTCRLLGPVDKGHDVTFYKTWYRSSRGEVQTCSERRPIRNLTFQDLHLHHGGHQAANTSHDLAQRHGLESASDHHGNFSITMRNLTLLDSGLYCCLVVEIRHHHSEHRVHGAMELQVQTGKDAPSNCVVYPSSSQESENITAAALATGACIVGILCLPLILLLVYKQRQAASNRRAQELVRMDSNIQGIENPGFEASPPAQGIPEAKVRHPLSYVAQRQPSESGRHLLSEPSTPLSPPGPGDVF
Description: cell-based or functional assay.

The target in test [4] is T3, human VISTA expressed on cells. The experiment in a line: cell-based or functional assay. This is another data set of the same source.
Test [5] has the same target. The experiment in a line: cell-based or functional assay. This is another data set of the same source.
Test [6] deals with T2, cynomolgus VISTA extracellular domain. The experiment in a line: SPR ProteOn. This is another data set of the same source.

B1: VSTB50 (antibody, human IgG1, kappa, V domains shown)
VH: QVQLVQSGSELKKPGASVKVSCKASGYTFTNYGLNWVRQAPGQGLEWMGWINPYTGEPTYADDFKGRFVFSLDTSVSTAYLQICSLKAEDTAVYYCAREGYGNYIFPYWGQGTLVTVSS
VL: DIVMTQTPLSLSVTPGQPASISCRASESVDTYANSLMHWYLQKPGQPPQLLIYRASNLESGVPDRFSGSGSGTDFTLKISRVEAEDVGVYYCQQTNEDPRTFGQGTKLEIKR
notes: also called S41; INX Code 41
As to B1, in test [1], binding was characterised by a dissociation constant (Kd) of 0.632 nM, the koff was found to be 0.000305 s⁻¹ and the kon amounted to 482000 M⁻¹ s⁻¹. In test [2], this molecule came in with a Kd of 0.31 nM, a koff of 0.000219 s⁻¹ and a kon of 708000 M⁻¹ s⁻¹. In addition, in test [3], the “IC50, CPM in the MLR” value was -0.12 log10 of antibody concentration and the “IC50, IFN-gamma in the MLR” value was 0.06 log10 of antibody concentration. For the same molecule, in test [4], the “IC50, CPM in the SEB assay” value is -0.74 log10 of antibody concentration and the “IC50, IFN-gamma in the SEB assay” value is 1.69 log10 of antibody concentration. In addition, in test [5], the “EC50 IFN-gamma production, MLR” value was 1.14 µg/mL and the “EC50 proliferation, MLR” value came out at 0.77 µg/mL.

B2: VSTB60 (antibody, human IgG1, kappa, V domains shown)
VH: B1 VH with L34M, N35T, P53T, P58S, E99D, G100Y, N103I, I105V, F106S, P107A
VL: B1 VL with T31N, L36F, P47S, T95S, N96H, R100Y
notes: also called S47; INX Code 47
With B2, in test [1], the affinity, expressed as Kd, was 0.356 nM; the koff stood at 0.000183 s⁻¹; the kon was determined as 514000 M⁻¹ s⁻¹. In test [2], this molecule returned a Kd of 0.252 nM, a dissociation rate constant (koff) of 0.000143 s⁻¹ and a kon of 569000 M⁻¹ s⁻¹. In test [3], the “IC50, CPM in the MLR” value was 0.02 log10 of antibody concentration and the “IC50, IFN-gamma in the MLR” value is 0.4 log10 of antibody concentration. In test [5], the “EC50 IFN-gamma production, MLR” value turned out to be 2.48 µg/mL and the “EC50 proliferation, MLR” value stood at 1.04 µg/mL.

B3: VSTB95 (antibody, human IgG1, kappa, V domains shown)
VH: EVQLVESGGGLVQPGGSLRLSCAASGFTFRNYGMSWVRQAPGKGLEWVASIISGGSYTYYPDSVKGRFTISRDNAKNSLYLQMNSLRAEDTAVYYCARIYDHDGDYYAMDYWGQGTTVTVSS
VL: DIVMTQSPLSLPVTPGEPASISCRSSQSIVHSNGNTYLEWYLQKPGQSPQLLIYKVSNRFSGVPDRFSGSGSGTDFTLKISRVEAEDVGVYYCFQGSHVPWTFGQGTKLEIKR
notes: also called S16; INX Code 16
In the case of B3, in test [1], the Kd was found to be 0.126 nM, the koff stood at 6.99e-05 s⁻¹ and the kon turned out to be 554000 M⁻¹ s⁻¹. Further, in test [2], the Kd is 0.192 nM, the koff came out at 8.53e-05 s⁻¹ and the kon was found to be 443000 M⁻¹ s⁻¹. Besides, in test [3], the “IC50, CPM in the MLR” value was -0.54 log10 of antibody concentration and the “IC50, IFN-gamma in the MLR” value was 0.22 log10 of antibody concentration. For the same molecule, in test [4], the “IC50, CPM in the SEB assay” value is -1.12 log10 of antibody concentration and the “IC50, IFN-gamma in the SEB assay” value was 0.05 log10 of antibody concentration. For the same molecule, in test [5], the “EC50 IFN-gamma production, MLR” value worked out at 1.67 µg/mL and the “EC50 proliferation, MLR” value was found to be 0.29 µg/mL.

B4: VSTB53 (antibody, human IgG1, kappa, V domains shown)
VH: QVQLVQSGAEVKKPGASVKVSCKASGYTFTHYTIHWVRQAPGQGLEWMGYIIPSSGYSEYNQKFKDRVTMTRDTSTSTVYMELSSLRSEDTAVYYCARGAYDDYYDYYAMDYWGQGTLVTVSS
VL: B3 VL with S28T, G96A
notes: also called S43; INX Code 43
In test [1], B4 registered a Kd of 0.0264 nM, a koff of 3.3e-05 s⁻¹ and a kon of 1.25e+06 M⁻¹ s⁻¹. In test [2], this molecule gave a Kd of 0.0528 nM, a koff of 6.22e-05 s⁻¹ and a kon of 1.18e+06 M⁻¹ s⁻¹. In test [3], the “IC50, CPM in the MLR” value was -0.33 log10 of antibody concentration and the “IC50, IFN-gamma in the MLR” value is 0.27 log10 of antibody concentration. Also, in test [4], the “IC50, CPM in the SEB assay” value is -1.06 log10 of antibody concentration and the “IC50, IFN-gamma in the SEB assay” value is -1.05 log10 of antibody concentration. Further, in test [5], the “EC50 IFN-gamma production, MLR” value is 1.88 µg/mL and the “EC50 proliferation, MLR” value amounted to 0.47 µg/mL.

B5: VSTB112 (antibody, human IgG1, kappa)
heavy: not shown
light: DIQMTQSPSSLSASVGDRVTITCRASQSIDTRLNWYQQKPGKAPKLLIYSASSLQSGVPSRFSGSGSGTDFTLTISSLQPEDFATYYCQQSAYNPITFGQGTKVEIKRTVAAPSVFIFPPSDEQLKSGTASVVCLLNNFYPREAKVQWKVDNALQSGNSQESVTEQDSKDSTYSLSSTLTLSKADYEKHKVYACEVTHQGLSSPVTKSFNRGEC
notes: also called S2; INX Code 2
B5 came in with a Kd in test [2] of 0.0866 nM.

B6: VSTB116 (antibody, human IgG1, kappa)
heavy: not shown
light: B5 light with D30N, R32N, S50A, S91A, A92R, Y93D, N94T
notes: also called S5; INX Code 5
In test [1], B6 returned a Kd of 0.213 nM, a koff of 0.000267 s⁻¹ and a kon of 1.25e+06 M⁻¹ s⁻¹. In test [2], binding was put at a Kd of 0.137 nM, the koff is 0.000117 s⁻¹ and the kon worked out at 851000 M⁻¹ s⁻¹. In addition, in test [3], the “IC50, CPM in the MLR” value was -0.78 log10 of antibody concentration and the “IC50, IFN-gamma in the MLR” value was -0.16 log10 of antibody concentration. In addition, in test [4], the “IC50, CPM in the SEB assay” value was -1.44 log10 of antibody concentration and the “IC50, IFN-gamma in the SEB assay” value is -0.35 log10 of antibody concentration. Also, in test [5], the “EC50 IFN-gamma production, MLR” value was found to be 0.69 µg/mL and the “EC50 proliferation, MLR” value was determined as 0.17 µg/mL.

B7: VSTB174 (antibody, human IgG1, kappa)
heavy: not shown
light: B5 light
The molecule B7 yielded a Kd in test [6] of 0.0866 nM.
